Measured values reported in publication PMC4755285 (Journal of biomolecular screening, 2015).
Read-outs that look alike come from different tables or passages of the source. Blank lines part the entries; values can stand above or below the molecule they belong to. Ends that are not written are not given here.

Tests used:
Assay in all cases: fluorescence polarisation
[1] = target: FITC labeled HCN4 peptide (C-terminal 11 amino acids of HCN4)
[2] = target: FITC labeled HCN3 peptide (C-terminal 11 amino acids of HCN3)
[3] = target: FITC labeled HCN2 peptide (C-terminal 11 amino acids of HCN2)
[4] = target: FITC labeled HCN1 peptide (C-terminal 11 amino acids of HCN1)
TRIP8b(241-602) [5] = target: TRIP8b(241-602)
TRIP8b(241-602) [6] = target: TRIP8b(241-602); remark: listed apart in the source
TRIP8b(241-602) [7] = target: TRIP8b(241-602); remark: listed apart in the source
TRIP8b(241-602) [8] = target: TRIP8b(241-602); remark: listed apart in the source
[9] = target: T1, His tagged full length TRIP8b (1b-2) isoform
T1 chain: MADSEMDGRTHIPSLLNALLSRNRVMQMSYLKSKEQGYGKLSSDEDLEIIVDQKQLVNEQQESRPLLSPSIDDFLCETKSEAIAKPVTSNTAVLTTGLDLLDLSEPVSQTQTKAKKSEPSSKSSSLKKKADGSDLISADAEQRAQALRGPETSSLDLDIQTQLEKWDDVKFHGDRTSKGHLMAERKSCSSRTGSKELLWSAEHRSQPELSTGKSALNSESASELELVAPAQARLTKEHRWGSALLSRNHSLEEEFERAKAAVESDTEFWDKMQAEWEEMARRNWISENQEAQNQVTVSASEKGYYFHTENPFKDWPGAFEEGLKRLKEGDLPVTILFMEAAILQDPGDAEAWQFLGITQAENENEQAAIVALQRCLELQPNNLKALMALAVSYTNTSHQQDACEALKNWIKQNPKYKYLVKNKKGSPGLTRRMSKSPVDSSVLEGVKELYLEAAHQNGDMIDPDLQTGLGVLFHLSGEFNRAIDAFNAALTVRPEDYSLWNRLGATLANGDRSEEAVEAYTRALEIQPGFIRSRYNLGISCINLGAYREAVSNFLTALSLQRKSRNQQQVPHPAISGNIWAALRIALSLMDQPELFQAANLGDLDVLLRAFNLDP

Kd [1]: 810 nM | Kd [2]: 10200 nM | Kd [3]: 910 nM | Kd [4]: 1230 nM | fluorescence polarisation without competitor (mP) [4]: 224 mP
Molecule: TRIP8b(241-602) (domain or fragment)

IC50 (TRIP8b(241-602) [5]): 700 nM | IC50 (TRIP8b(241-602) [6]): 1770 nM | IC50 (TRIP8b(241-602) [7]): 1600 nM | IC50 (TRIP8b(241-602) [8]): 890 nM
Molecule: DAEKPRFASNL [unlabeled HCN1 peptide]

IC50 (TRIP8b(241-602) [5]): 760 nM
Molecule: DSARSRLSSNL [unlabeled HCN2 peptide]

IC50 (TRIP8b(241-602) [5]): 1930 nM
Molecule: EPVRSKLPSNL [unlabeled HCN4 peptide]

Kd [9]: 1030 ± 20 nM | Kd (TRIP8b(241-602) [5]): 800 nM
Molecule: DAEKPRFASNL (also: FITC label, position not given here) [FITC labeled HCN1 peptide (C-terminal 11 amino acids of HCN1)]
